Assay results: the DeepSol protein solubility set

Assay: soluble on expression in E. coli; label from the status in PepcDB or PDB records

Soluble on expression in E. coli, soluble:
MGSDKIHHHHHHMPKIWTERIFDDPEIYVLRIDDDRIRYFEAVWEIPEGISYNAYLVKLNGANVLIDGWKGNYAKEFIDALSKIVDPKEITHIIVNHTEPDHSGSLPATLKTIGHDVEIIASNFGKRLLEGFYGIKDVTVVKDGEEREIGGKKFKFVMTPWLHWPDTMVTYLDGILFSCDVGGGYLLPEILDDSNESVVERYLPHVTKYIVTVIGHYKNYILEGAEKLSSLKIKALLPGHGLIWKKDPQRLLNHYVSVAKGDPKKGKVTVIYDSMYGFVENVMKKAIDSLKEKGFTPVVYKFSDEERPAISEILKDIPDSEALIFGVSTYEAEIHPLMRFTLLEIIDKANYEKPVLVFGVHGWAPSAERTAGELLKETKFRILSFTEIKGSNMDERKIEEAISLLKKELE
MGSDKIHHHHHHMPTPADDLVVIGKIVSVYGIRGEVKVYSFTDPLDNLLDYRRWTLRRDGEIRQAELVRGRLHGKVLAAKLKGLDDREEARTFTGYEICIPRSELPSLEEGEYYWHQLEGLKVIDQGRQLLGVIDHLLETGANDVMVVKPCAGSLDDRERLLPYTGQCVLSIDLAAGEMRVDWDADF

Soluble on expression in E. coli, not soluble:
MGSDKIHHHHHHMPNHDALAGGKVHLRRGVDLQVSHSPGVYPPLVFIHGGTGNRFNFRMQYEFAQAQGWEVLAYDLGGNGQSSRYSRYSIGRHCRDLARLLVRFGVESPVLCCHSYGVPIGLEFVQHHPVSAIIAIAGGTHDLAPWWEIPLMKFMAGGGRYLLHLPGVQKINKLLSTSYSHSVMERFFVENPPPTDFDAYKGLEIFWDYNFFIRHPLPKNLHIPALVITADKDPTFTANMGDELANHFDDGTHLHFAKGGHLVMAESAELVNEAIANWLIQKLTIN
MGSDKIHHHHHHMPNNALLQIKQDTLSLIDDLKVICTSFGLGNDGNEYKIITQCFLYKFLCDKFEFLFEQEFPNQTIQDYKDFNKEEKEEFFITLTDKRLPKLAYDDLLNYLFEKHFNDNDLHLKLDIIFNRISSNNAELFNTTSTDKTTIALFESISQYINEESKRANFTRVLLDKLKKFNFKQAFLNLQNQQGYDFFAPIFEYLLKDYNNAGGGKYAEYYTPLSIASIIAKLLINEPTRNVKIYDPSAGTGTLLMALAHQIGTDSCTLYAQDISQKSLRMLKLNLILNDLTHSLRNAIEGNTLTNPYHSKDFKGKMDYIVSNPPFKLDFSNEHAEISQNKNDFFLGVPNIPKNNKSKMPIYTLFFQHCLNMLSNKGKGAIIVPTGFISAKSGVENKIIRHLVDERLVYGVVCMPSQVFANTGTNVSIIFFQKTPSAKEVVLIDASKLGEEYTENKNKKTRLRPSDIDLILETFQNKTKKSDFCALVSFDEITEKIIL
MGSDKIHHHHHHMPPAKTQEFDPSRIKEPNSPSVITKAATLMDVLRTEGPTNSARLAEVLGEPISSVYRMLHTLTAIGWVEQDGKRGSYRVGLAMLTLAELQLRHMDLRKIAALTMRKIHALTGETTFLCVRHGIRAVCIERVDGDRVNSRVLQLGTSLPLHVGAAPRALLAFEGRRAWETYATNLGFEGHNWSKGPSRGELFQHLDEDRDKGFCLVDNEITPGIAAVGAPIYNHRGEVVASLSMSGLRDGILSDTTDYSAVELILQGSAEISQALGATIEHNGGNQKLPQVTPLSIVV
MGSDKIHHHHHHMPQFSPSYSFPVQIYYEDTDFSGVVYHPNFLKYFERAREHVIGAEQLRNLWQQQQLGFAVYRSDMLCHEGVEFADIIDIRTKFYFESKYRTVWHQEIWRPNGKKPAVTATIEMVCMNQARQLAPMPAELITQLSLGM
MGSDKIHHHHHHMPRKPIPALPPLDWLRSFEAAARLSNFTAAAAELGLTQAAVSQHIRLLEERLKTRLFSRLARGVALSPEGAAYLPHIQSAFATISSSTTELFEPRAVQTVSIRVPISFALLILVPALPDLAEALPRIQLDLVTIHRPTDYDLPGSALDIRFGNGSFPGREAGRLTAERLVPVASPALAGAADWTALPLLLVAGAREMWAEWFAAAGLAGHPQRSHRFDSFVAAMEAASAGAGVLLGSRPLVDAALRNRTLVPLSDFELSSSSGHFLTSASTARLTSAEQDFRQWLLGHLSRKAPA
MGSDKIHHHHHHMPSVVGHPQGNIEAIAFVIKFLEGLGFDIRITDIEKTEQPTIIAHYPGRLSDNKIVIYGHYDVAPVKELNSWVSEEAFTLENINGRLYGRGIADNKGPLMARMIALKSLILSDKAIPEILWLIQGEEEITQGDRVAHDIFKDEIPAFGAPVYIEETGFNDLDSNTQIAFLWSPDKSDSELIPWHSLLESSLDSPRIEYRHLNKLNGIKACPLLYNLPKNAVYMGFGPNDRLHFIHRDNESLNENKLLKHQQQFEKFLANYALYNDES
MGSDKIHHHHHHMPTIHLIDGEKGGVGKSLVARTMIQYCLDNNMPFVPVETDRSNPDVAGVYKGICQYAVFTEDERHADKADKIFEIAMNKTVIANLAAQSHRAVKGWIEKNHLIELGESQGVDFCKWFVSTGGYDSLNLFKQSVNSYGGKVPHILVKNLGLCDDWEHVNSDATIQEVVKKYNVKAIDFPKLAYKERNIIDQHRLTFADAREYKEFGIISKQRVVNFLKLAYASFETVGIWYEEVK
MGSDKIHHHHHHMQATRESRLIFNINLIYGRLQRNCYGLVALLLCFTSTSAAALDSPVFYKIEYQQQQAYLLGSIHVGRQDFYPLAQHIESAFKQSDALVVEADISQGDTGALLQRYGGLPAEIAADVNATRQEYCQSHQTLCQALAPYAPWLQSAQISMGRFGQLGYSAEQGVDAYFMANRSGKNVVELESIQFQFELISSFSTATQLQMLDDSINASDAEMLDLIYAWRQGDGNALANIMESQAGDADELLEKLLWQRNHTMAQKIIQLLQSKTHKQLFIVVGAGHIVGQQAIPDLLKQQGATITRCSFLQC
MGSDKIHHHHHHMQDIDDFLRQHRITEVEAIIPDMAGIARGKIIPRNKFETGESMRLPQAVMVQTVTGDYPEDGTLTGVTDPDMVCVADASTICLIPWAVDPTAQVIHDCVHFDGSPVEISPRYVLRRVLDLYRARGWKPVVAPELEFYLVDMNKDPDLPLRPPVGRTGRAETGRQSYSIEAVNEFDPLFEDIYEYCELQGLDIDTLIHEVGAAQMEINFLHGDALSLADQVFLFKRTVREAALRHNMYATFMAKPMESEPGSAMHIHQSVVDIETGRNLFIGASGDVTPMFRSYLAGLQKYTPALMPIFAPYINSYRRLSRFMAAPINVQWGYDNRTVGFRIPHSAAAARRIENRIPGVDCNPYLAIAGTLAAGYLGVTQGLEPTEPLASDGYSLPYQLPRNLEEGLTLMSACAPLAEMLGEKFVKAYLALKETEYEAFFRVISSWERRHLLLHV
MGSDKIHHHHHHMQGVEPRERPYPQPNIQISYKKMEECPICLADDQEGEQFGCLNVCGHKFHLNCIREWHKYSINLKCPICRVESTHLEVGEGQHALSINLKMGFMIKNAIDYVGAETTNERNEDDTGEQDQEIEFLSERLRGTLVMDTIKIIQCSICGDTDVSRLSLYCQDCEAIYHETCLRGLACEVGDRNTWQECTDCRSNALLELRMGAISSQLASYDSRNSMIFAGELRDKHSVKTQQMYEQIRNAKHKIQMHVRRALDRYPLPLLRFKDAYKHVNKQVSRKLYRLSDNKYLPDQYDYDSLARTGVHTELLIYCHDE
MGSDKIHHHHHHMQIKNTQLGHIAWCETTAQHIAPQDFAVDGWREKNAVVGQSKGRYTTWFVKTDNSDSPQTWVLRHYWRGGMMEKFSRDAYFYTGLQRTRAVAELAILEVLYQEGFAVPRPIAANVERFGLWYRADIIIEHVAGANDLVAYLSHNPMTESQWYLLGETIAKFHQRGVYHADLNAKNILLAHGEFYLIDFDRGELRTPQPTWQQANLDRLLRSFNKEHAKLTTLQFSQQHWLQLLAGYQSINPI
MGSDKIHHHHHHMQIYASLLLILKLERKLCIFSGKVMELYEMYYFAFNKSSEPMLFADPNTGRIFDVNQAFLALLGYAKDEVMVKTTFDLGLLPEEDSQPRQPLWVKTKNGSLKSGMVSATDLVHKEKMMRLMVFQEQSENGNFTLEEMLTQTISLISKISEFRDPYTSGHQKRTQKLACAIASEMKLSGEAIHHVSMAAAIHDVGKIYISSDILNKPGKLTQLEYQMLQTHVEVGYEIIKDFQLPWQIPEIISQHHERLDGSGYPKGLTASQIFLESKILAVADVVDAMNSHRPYRPALGIEAALEEICNYKGEKYDSEVVEHCVRLFKEKQAMPNRFKI
